Measurements reported in the DeepSol protein solubility set.

Assay: soluble on expression in E. coli; label from the status in PepcDB or PDB records

| Sequence | soluble on expression in E. coli |
| --- | --- |
| MSLLRFGIISTAKIAQDHVIPAIQDAENCVVSAIASRDHARARAVAERFSVPHAFGSYEEMLASDVIDAVYIPLPTAQHVEWTIKAANAGKHVLCEKPIALKAEEIDTLIAARDRNGVIVSEAFMVTYSPVWAKVKELLASGAIGTLKHVQGAFSYFNRDPGNMRNIPELGGGALPDIGVYPTIVTRFATGAEPRRVQATVERDREFGTDIYSSVRADFGTFELSFYLATQLASRQLMVFHGTDGYIEVKSPFNANRWGAEEIELTNQAHNQSQVFRFQDSRQYKLEAEAFARAVRGEGEVVTLENSRKNQLFIDAIYRAAEKDGWETVEGHHHHHH | soluble |
| SSDANLDSSKKNFLEGEVDDEESVILTLVPVKDDANMEQMEPSVSSTSDVKLEKPKKYNPGHLLQTNEQFTAPQKARCKIPALPLPTILPPINKVCRDTLRDWCQQLGLSTNGKKIEVYLRLHRHAYPEQRQDMPEMSQETRLQRCSRKRKAVTKRARLQSSYEMNERAEETNTVEVITSAPGAMLASWARIAARAVQPKALNSCSIPVSVEAFLMQASGVGWCVVHGRLLSADTKGWVRLQFHAGQAWVPTTHRRMISLFLLPACIFPSPGIEDNMLCPDCAKRNKKMMKRLMTVEK | soluble |
| MNVLFTSVPQEDVPFYQEALKDLSLKIYTTDVSKVPENELKKAELISVFVYDKLTEELLSKMPRLKLIHTRSVGFDHIDLDYCKKKGILVTHIPAYSPESVAEHTFAMILTLVKRLKRIEDRVKKLNFSQDSEILARELNRLTLGVIGTGRIGSRVAMYGLAFGMKVLCYDVVKREDLKEKGCVYTSLDELLKESDVISLHVPYTKETHHMINEERISLMKDGVYLINTARGKVVDTDALYRAYQRGKFSGLGLDVFEDEEILILKKYTEGKATDKNLKILELACKDNVIITPHIAYYTDKSLERIREETVKVVKAFVKGDLEQIKGNFVVGPS | soluble |
| MQAQQLPYEFFSEENAPKWRGLLVPALKKVQGQVHPTLESNDDALQYVEELILQLLNMLCQAQPRSASDVEERVQKSFPHPIDKWAIADAQSAIEKRKRRNPLSLPVEKIHPLLKEVLGYKIDHQVSVYIVAVLEYISADILKLVGNYVRNIRHYEITKQDIKVAMCADKVLMDMFHQDVEDINILSLTDEEPSTSGEQTYYDLVKAFMAEIRQYIRELNLIIKVFREPFVSNSKLFSANDVENIFSRIVDIHELSVKLLGHIEDTVEMTDEGSPHPLVGSCFEDLAEELAFDPYESYARDILRPGFHDRFLSQLSKPGAALYLQSIGEGFKEAVQYVLPRLLLAPVYHCLHYFELLKQLEEKSEDQEDKECLKQAITALLNVQSGMEKICSKSLAKRRLSESACRFYSQQMKGKQLAIKKMNEIQKNIDGWEGKDIGQCCNEFIMEGTLTRVGAKHERHIFLFDGLMICCKSNHGQPRLPGASNAEYRLKEKFFMRKVQINDKDDTNEYKHAFEIILKDENSVIFSAKSAEEKNNWMAALISLQYRSTLERMLDVTMLQEEKEEQMRLPSADVYRFAEPDSEENIIFEENMQPKAGIPIIKAGTVIKLIERLTYHMYADPNFVRTFLTTYRSFCKPQELLSLIIERFEIPEPEPTEADRIAIENGDQPLSAELKRFRKEYIQPVQLRVLNVCRHWVEHHFYDFERDAYLLQRMEEFIGTVRGKAMKKWVESITKIIQRKKIARDNGPGHNITFQSSPPTVEWHISRPGHIETFDLLTLHPIEIARQLTLLESDLYRAVQPSELVGSVWTKEDKEINSPNLLKMIRHTTNLTLWFEKCIVETENLEERVAVVSRIIEILQVFQELNNFNGVLEVVSAMNSSPVYRLDHTFEQIPSRQKKILEEAHELSEDHYKKYLAKLRSINPPCVPFFGIYLTNILKTEEGNPEVLKRHGKELINFSKRRKVAEITGEIQQYQNQPYCLRVESDIKRFFENLNPMGNSMEKEFTDYLFNKSLEIEPRNPKPLPRFPKKYSYPLKSPGVRPSNPRPGT | soluble |
| MSLSSFPDVPGWVKPSVDYLINKNVLSGMPDGTFSPNLEIDRGSSAKVMAKILELPIDQSAKPSFDDSKSHWAAPYIAAIEKAGVIKGDGKGNFNPTGKLTRGAMASMLVHAYKLQEKVTGNPPTVFNDLKDHWSEKYVNILVELGISNGYGDDNWKPDQTITRAETVSLVARTDEGHHHHHH | not soluble |
| MSLKPSTRSNVQPFRVMQMLDRVHRRRREGKDTLMFCAGQPSTGAPEAVIEEAEIALRSGPLGYTEVIGDREFRERIADWHSATYDVDTNPDNVIVTTGSSGGFVASFIATLDHGDYVAMPTPGYPAYRNILESLGAKVLNLRCTAETRFQPTAQMLEELPHKPKAVIVTSPGNPTGTIIDPEELERIAKWCDDNDAVLISDEDYHGMSFGRPLATAHQFSKNAIVVGTLSKYFSMTGWRVGWIIVPDELVTPIENLQASLSLCAPAIGQAAGRAAFTLEAGAELDAHVEAYREAREVFVDKLPEIGLGTFADPDGGLYLWVDVSAYTDDSEEWALRLLDEAGVAVAPGVDFDPEEGHKWIRLSLCASKEDTIEGVRKIGEFIKKEGHHHHHH | soluble |
| MGSDKIHHHHHHMPQDTISVSLLDSRIQASRPNYYNPLLVYKTAKIKVNKDAASYKILNLTVNNYEKQIETLEKENGNGEDQFGKEKTLLKTAMSNFFNSSEESLKSADLFIYKDKPEELKNYLKVHRHTFVVLINTEGDASDDGLKIYKDDYNKFKKPSTFFVFSTKEQEIKELFKDKGNTEKERNIAVYSNNKDNLHLKFISQYLHQASIFHAVNPYGMPLAATPLVDDTVIGKLRTAKINFYSLLNETGLDGVPAFKEGVDLAGGAIDEQFTYHYIKNEAIIELIRIWNKNNRQNSKLSALQLSGARDNAYTSAIECLLKRFVDRGLIIEYKNLRLTLSPTPQLKLELSVNITYNFSINAVALVITTQDIVDYQNSLSA | not soluble |
| MHKDIKLVKETEIRKPIGSPFIVYFSSISNNTHRFIEKLGFQHKRIPVDITQSITVSNEYVLICPTYSGGGNQVEGAVPKQVIQFLNNKHNRELCRGVIASGNTNFGDTFCLAGTVISKKLNVPLLYQFELLGTKNDVEQTQKIIANFFQNSN | soluble |
| MSLATTVKIATISPLSGSSSNLGLQIKNGAQLAVNEYKAEFAKLGMNLSLVAYDDQADPATGTAAARRVVADKNVLAVVGTLNTGVAIPASQALSTSKVAMVSPANTGTKVTDRGLKNMNRICARDDAQGPAGADFMVSTLKVKKVYVINDKTPYGEGLSGEAEKRLKAKGVQIVQSEGVAAEERDFTAIITKIQTLKPDAIYFGGLYGQIGPFAQQLRAKGVQVPLIGGDGMDSDELAKLAGAQGANNIYFTTVAPPLDSVPAAKTMAGNFKKAFGSDVQGYGIMGYDSAKVVLQGILDAAKKNGNKAPSRAQVETAIRSGTFGNLLTGTVQFDKNGDRKAGKMYVIAIKNAQRSTAGQVNVLREGHHHHHH | soluble |
| MIDHALALTHIDERGAARMVDVSEKPVTLRVAKASGLVIMKPSTLRMISDGAAAKGDVMAAARIAGIAAAKRTGDLIPLCHPLGLDAVSVTITPCEPDRVKILATTTTLGRTGVEMEALTAVSVAALTIYDMCKAVDRAMEISQIVLQEKSGGRSGVYRRSASDLACQSR | soluble |
| MERILLVLDDTGRGEIAFQKLKKLAEDGLRGEVYILYIREMEVPPFVPEEKELAAYHRLMTQSMKKLEGFKNQLEKAGLKVSDVSVVFGKYADRLLLVEKQIKPDLIVVGFKGGLLKRVIGGFFGKDPCEVLLKKSKASLLICRG | not soluble |
| MWIPSKLTRPGRLHNAIVRPRVLDLLQQAPYYKLVLFRSPAGYGKTTMAAQWLSDKPNVGWYSIDDSDNDGFRFVNYLLQALNKATNFSCSNAQKLAEKRQISSLRSLFSEVFAEMADFHQECYVVLDDYHLITNDEIHESMRFFLKHMPDNLTVVVTSRAAPPLGTANLRVRDLMIEIGNEMLAFDTEETTRFFNQRIADGIDEDMANSLRTYVEGWPSAMQLIALQAQHQNRTLAQTVESVSQFNHAHLWDYLVEEVFDLLDHETRHFLMQVSVLDHFNDELVFALTQREDALGLIESLNRYGLFIYPLEGEHNWFRFHNLFGEFLSHERQARIPQQEKDLHRNAAVAWLQQKSPHQAIHHAQKSNDKDLVVEILNEFGWKMFNQGELSTLEHAINKLDAELLFSHPKLTMLRAWLAQSQHRYNQVGQLLEEAEEEHKKRNIELDIHYQGQA | not soluble |
| MGSDKIHHHHHHMNTNQLIEAFRKFLPAEAILHEAEDLRPYECDALSAYRQLPMIVVLPRTEAEIAAILQTCQAERIPVVARGSGTGLSGGALPHAEGVLLSLARLNHILEIDPAAGTARVQPGVRNLAISEAAAYYGMYYAPDPSSQIACSIGGNVAENSGGVHCLKYGLTVHNILRLRVLTIEGDLLEIGADALDSPGFDLLALMTGSEGMLGIVTEITVRLLPKPETVKLVMAVFDDVRKAGEAVASVIQAGIIPAGMEMMDKITIHAVEDFVHAGYDLEGAAILLCESDGMAEEVADEIERIRTILQASGATRISLAQDEAERQRFWAGRKAAFPAAGRVSPDYYCMDGTIPRKHLAHVLEQIEQLSAEYGLRCMNVFHAGDGNLHPLILYDANQPGELQKAEAFGARILEICIEAGGSLTGEHGVGIEKLNQMCLQFNDAERNRFHAIKAAFDPQSLLNPGKAIPELHRCAEFGAMHIHRGAEKFPEIPRF | not soluble |
| MNKEQECSKNIFDLPREIVIYHLKSAGIFVFEELDCDDIAQTPLLIMAPSVPLHVRLERTPTINLLKCHEKPLTEDQLFLLLSKCQQHTKKCMPSEEEIDQWVEVSSSKPREQSSNRGSKKDSWNHSIFMYNFFHRRGSNKRAAKYLEKIENGKSEKIRARVSQIRNLDLGYISLPMETINLEDAKQRDKLKEKALAETAESKKGKDILNLFTNVYY | not soluble |
| MTKEQIQIIKDCVPILQKNGEDLTNEFYKIMFNDYPEVKPMFNMEKQISGEQPKALAMAILMAAKNIENLENMRSFVDKVAITHVNLGVKEEHYPIVGACLLKAIKNLLNPDEATLKAWEVAYGKIAKFYIDIEKKLYDK | soluble |
| MSTGGFQKDQAINILLIGTDKRTGSGNDGYGDKGSAGHADTTLLLHVSKDRSNATALSIPRDLIVDVPDCPTTQEDGSTKVIPGSTGVRFNTSLGQSGRTPSCTMRTVTELTGVTPDNFMVADFNAVKTLSSAVGGVEVCLAKDIDDPDSHLNLPAGKHTVEGEEALAFVRTRHSVGFGGDLSRIELQQQFLSSLMRKLKSNDTLTSPTKMVKLAEAGTDALTVDAKLKSIGKLKDLGLELGKLDTKNLTFATVPVKDNPAEKTPVTVVLKDGPAQQVFDMVKNDVSFTEVKKQEKEKKDKEEAAVAARLEGKKSEPSEVRVRVLNGGASSGSAGRELTYLQNEAGVTKSENAGNAPADIAKTTLEYAPDQADQARALAEILGLTGAAMKPGESVTNSQGLPAMTLTLGKDFKGAGVKLDATSAKAPEDLQKSTADKVECAKLEHHHHHH | soluble |
| MGSDKIHHHHHHMNLAGAQLTENELMRLTVSNIAQATSLPALIQEHGRWCCQRCGDRKPVQLPDGRFYCSACVSLGCLTNRDLLYRFEQPHRPVGDGLLTWHGTLTPAQQKASTALQTSVTAGADHLIWAVTGAGKTEMLFPTISQMVQQGKRVAIVSPRIDVIRELAPRLRTAFATTPIAVRYGGHFDQTDSDLVLATVHQLLRFHRAFDLIVVDEVDAFPMAGTPMLHRAVQGARRGPVVYLTATPDRPLKAAMRKGLMVSRLFRRFHGHPLPVPAIRLMNFKKLPSQLPPAIVKWVRDVVATGRSCLLFVPKISWAPQIAALVQRNGLRVAGVASTDRLRAEKITAFRQRQIQVLVTTTILERGVTVSKCAVGVVAAADRAFTASALVQIAGRAGRAADSADDPVVFFTDRYTLALLAAKRQIVMMNGR | not soluble |
| QVQLQESGPGLMKPSETLSLTCSVSGDSIRSDYWSWIRKPPGKGLEYIGYVSYSGSTYYNPSLKSRVTISVDTSKNRFSLKLNSVTAADTAVYYCARWDGDYWGQGILVTVSS | soluble |
